Data from patent US20150344570A1 (published 2015).

T1: FcgRIIaR (human, UniProt P12318 34-217)
T1 construct: extracellular domain; also called FcγRIIa R; FcγRIIa type R; not shown: His tag at the C terminus
T1 sequence (looked up): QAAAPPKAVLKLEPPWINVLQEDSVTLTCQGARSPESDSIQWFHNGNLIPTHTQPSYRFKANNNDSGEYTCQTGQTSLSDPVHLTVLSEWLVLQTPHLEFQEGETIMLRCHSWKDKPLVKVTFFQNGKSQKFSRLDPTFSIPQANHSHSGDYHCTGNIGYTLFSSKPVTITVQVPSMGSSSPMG

T2: FcgRIIaH (human, UniProt P12318 34-217)
T2 construct: extracellular domain; also called FcγRIIa H; FcγRIIa type H; not shown: His tag at the C terminus
T2 sequence (looked up): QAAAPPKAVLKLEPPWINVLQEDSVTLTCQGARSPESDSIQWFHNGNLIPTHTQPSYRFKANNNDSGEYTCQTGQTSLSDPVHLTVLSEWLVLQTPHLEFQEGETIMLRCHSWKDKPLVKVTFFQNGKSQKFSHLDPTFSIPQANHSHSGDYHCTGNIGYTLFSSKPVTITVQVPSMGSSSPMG

T3: FcgRIIb (human, UniProt P31994 43-217)
T3 construct: extracellular domain; also called FcγRIIb; CD32B; not shown: His tag at the C terminus
T3 sequence (looked up): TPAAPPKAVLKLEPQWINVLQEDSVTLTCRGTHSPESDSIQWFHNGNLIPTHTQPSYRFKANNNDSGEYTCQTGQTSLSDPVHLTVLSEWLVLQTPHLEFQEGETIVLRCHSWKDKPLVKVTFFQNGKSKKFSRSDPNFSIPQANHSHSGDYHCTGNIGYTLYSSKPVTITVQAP


Assays:
Test in all cases: SPR (Biacore); KD of H240-Kn033/H240-Hl033/L73-k0 divided by KD of the variant
FcgRIIaR = target: T1, FcgRIIaR
Description: (§1) Binding of the produced variants to FcgRIa, FcgRIIaR, FcgRIIaH, FcgRIIb, FcgRIIIaF, and FcgRIIIaV was measured according to the method of Reference Example 8.
(§2) Analysis of interaction between objective antibody and the FcγR was carried out using Biacore T100 (GE Healthcare), Biacore T200, Biacore A100, and Biacore 4000. HBS-EP+ (GE Healthcare) was used as the running buffer, and the measurement temperature was set to 25° C. Chips produced by immobilizing the antigen peptide by the amine coupling method to a Series S sensor Chip CM5 (GE Healthcare), chips produced by allowing preliminarily biotinylated antigen peptides to interact with and immobilize onto a Series S Sensor Chip SA (certified) (GE Healthcare), chips produced by immobilizing Protein L (ACTIGEN, BioVision) to Series S Sencor Chip CM5 (GE Healthcare), or chips produced by immobilizing Protein A/G (Thermo Scientific) to Series S Sencor Chip CM5 (GE Healthcare) were used. Antibodies of interest were captured onto these chips, and allowed to interact to each FcγR diluted with running buffer. To regenerate and repeatedly use the chip, the antibodies captured onto the chip were washed off by reacting 10 mM glycine-HCl, pH 1.5.

FcgRIIaH = target: T2, FcgRIIaH
Description: as §1, §2

FcgRIIb = target: T3, FcgRIIb
Description: as §1, §2

FcgRIIIaF = target: T4, FcgRIIIaF (human, UniProt P08637 17-208)
T4 construct: extracellular domain; also called FcγRIIIa F; not shown: His tag at the C terminus
Description: as §1, §2

FcgRIIIaV = target: T5, FcgRIIIaV (human, UniProt P08637 17-208)
T5 construct: extracellular domain; also called FcγRIIIa V; not shown: His tag at the C terminus
Description: as §1, §2

T5 sequence (P08637 17-208 F176V limits assumed): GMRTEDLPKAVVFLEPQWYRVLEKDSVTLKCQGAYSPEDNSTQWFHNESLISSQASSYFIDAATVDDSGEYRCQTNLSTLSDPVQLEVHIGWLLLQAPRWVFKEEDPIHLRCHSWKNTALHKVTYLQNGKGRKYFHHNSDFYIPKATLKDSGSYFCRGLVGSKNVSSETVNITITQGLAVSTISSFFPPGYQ
T4 sequence (P08637 17-208): as the sequence (P08637 17-208 F176V limits assumed) above, with V160F counted along it

fold 2aR (FcgRIIaR) [fold]	fold 2aH (FcgRIIaH) [fold]	fold 2b (FcgRIIb) [fold]	fold 3aF (FcgRIIIaF) [fold]	fold 3aV (FcgRIIIaV) [fold]	Binder
25.5	11.3	8.7	13.8	7.1	H240-Kn037/H240-Hl036/L73-k0 (antibody, human IgG1, kappa, it says that both H chains have G236A/S239D/I332E) heavy 1: QDQLVQSGAEVKKPGASVKVSCKASGFNIKDTYIQWVRQAPGQGLEWMGRIDPLRKQTKYREKFEGRVTITADTSTNTAYMELSSLRSEDTAVYYCVRSGREFDYWGQGTLVTVSSASTKGPSVFPLAPSSKSTSGGTAALGCLVKDYFPEPVTVSWNSGALTSGVHTFPAVLQSSGLYSLSSVVTVPSSSLGTQTYICNVNHKPSNTKVDKKVEPKSCDKTHTCPPCPAPELLAGPDVFLFPPKPKDTLMISRTPEVTCVVVDVSHEDPEVKFNWYVDGVEVHNAKTKPREEQYNSTYRVVSVLTVLHQDWLNGKEYKCKVSNKALPAPEEKTISKAKGQPREPQVCTLPPSRDELTKNQVSLWCLVKGFYPSDIAVEWESNGQPENNYKTTPPVLDSDGSFFLYSKLTVDKSRWQQGNVFSCSVMHEALHNHYTQKSLSLSP heavy 2: QDQLVQSGAEVKKPGASVKVSCKASGFNIKDTYIQWVRQAPGQGLEWMGRIDPLRKQTKYREKFEGRVTITADTSTNTAYMELSSLRSEDTAVYYCVRSGREFDYWGQGTLVTVSSASTKGPSVFPLAPSSKSTSGGTAALGCLVKDYFPEPVTVSWNSGALTSGVHTFPAVLQSSGLYSLSSVVTVPSSSLGTQTYICNVNHKPSNTKVDKKVEPKSCDKTHTCPPCPAPELLAGPDVFLFPPKPKDTLMISRTPEVTCVVVDVSHEDPEVKFNWYVDGVEVHNAKTKPREEQYNSTYRVVSVLTVLHQDWLNGKEYKCKVSNKALPAPEEKTISKAKGQPREPQVYTLPPSRCELTKNQVSLSCAVKGFYPSDIAVEWESNGQPENNYKTTPPVLDSDGSFFLVSKLTVDKSRWQQGNVFSCSVMHEALHNHYTQKSLSLSP light: DIQMTQSPSSLSASVGDRVTITCRASQDIHKYIAWYQQKPGQAPRLLIQYTSTLQPGVPSRFSGSGSGTDYTFTISSLQPEDIATYYCLQYEQLRTFGGGTKVEIKRTVAAPSVFIFPPSDEQLKSGTASVVCLLNNFYPREAKVQWKVDNALQSGNSQESVTEQDSKDSTYSLSSTLTLSKADYEKHKVYACEVTHQGLSSPVTKSFNRGEC
1.5	3.1	0.6	264	253	H240-Kn225/H240-Hl076/L73-k0 (antibody, human IgG1, kappa) heavy 1: QDQLVQSGAEVKKPGASVKVSCKASGFNIKDTYIQWVRQAPGQGLEWMGRIDPLRKQTKYREKFEGRVTITADTSTNTAYMELSSLRSEDTAVYYCVRSGREFDYWGQGTLVTVSSASTKGPSVFPLAPSSKSTSGGTAALGCLVKDYFPEPVTVSWNSGALTSGVHTFPAVLQSSGLYSLSSVVTVPSSSLGTQTYICNVNHKPSNTKVDKKVEPKSCDKTHTCPPCPAPEYQWGPIVFLFPPKPKDTLMISRTPEVTCVVVDVSDEEPEVKFNWYVDGVEVHNAKTKPREEQYNATYRVVSVLTVLHQDWLNGKEYKCKVSNKALPAPIEKTISKAKGQPREPQVCTLPPSRDELTKNQVSLWCLVKGFYPSDIAVEWESNGQPENNYKTTPPVLDSDGSFFLYSKLTVDKSRWQQGNVFSCSVMHEALHNHYTQKSLSLSP heavy 2: QDQLVQSGAEVKKPGASVKVSCKASGFNIKDTYIQWVRQAPGQGLEWMGRIDPLRKQTKYREKFEGRVTITADTSTNTAYMELSSLRSEDTAVYYCVRSGREFDYWGQGTLVTVSSASTKGPSVFPLAPSSKSTSGGTAALGCLVKDYFPEPVTVSWNSGALTSGVHTFPAVLQSSGLYSLSSVVTVPSSSLGTQTYICNVNHKPSNTKVDKKVEPKSCDKTHTCPPCPAPELLGGPSVFLFPPKPKDTLMISRTPEVTCVVVDVSHEEPEVKFNWYVDGVEVHNAKTKPREEQYNSTYRVVSVLTVLHQDWLNGKEYKCKVSNDALPMPIEETISKAKGQPREPQVYTLPPSRCELTKNQVSLSCAVKGFYPSDIAVEWESNGQPENNYKTTPPVLDSDGSFFLVSKLTVDKSRWQQGNVFSCSVMHEALHNHYTQKSLSLSP light: DIQMTQSPSSLSASVGDRVTITCRASQDIHKYIAWYQQKPGQAPRLLIQYTSTLQPGVPSRFSGSGSGTDYTFTISSLQPEDIATYYCLQYEQLRTFGGGTKVEIKRTVAAPSVFIFPPSDEQLKSGTASVVCLLNNFYPREAKVQWKVDNALQSGNSQESVTEQDSKDSTYSLSSTLTLSKADYEKHKVYACEVTHQGLSSPVTKSFNRGEC
1.2	1.4	2.1	24.2	11.4	H240-Kn205/H240-Hl212/L73-k0 (antibody, human IgG1, kappa, L234Y/Y296W/S298C in one H chain, S239D/K334V in the other) heavy 1: QDQLVQSGAEVKKPGASVKVSCKASGFNIKDTYIQWVRQAPGQGLEWMGRIDPLRKQTKYREKFEGRVTITADTSTNTAYMELSSLRSEDTAVYYCVRSGREFDYWGQGTLVTVSSASTKGPSVFPLAPSSKSTSGGTAALGCLVKDYFPEPVTVSWNSGALTSGVHTFPAVLQSSGLYSLSSVVTVPSSSLGTQTYICNVNHKPSNTKVDKKVEPKSCDKTHTCPPCPAPEYLGGPSVFLFPPKPKDTLMISRTPEVTCVVVDVSHEDPEVKFNWYVDGVEVHNAKTKPREEQWNCTYRVVSVLTVLHQDWLNGKEYKCKVSNKALPAPIEKTISKAKGQPREPQVCTLPPSRDELTKNQVSLWCLVKGFYPSDIAVEWESNGQPENNYKTTPPVLDSDGSFFLYSKLTVDKSRWQQGNVFSCSVMHEALHNHYTQKSLSLSP heavy 2: QDQLVQSGAEVKKPGASVKVSCKASGFNIKDTYIQWVRQAPGQGLEWMGRIDPLRKQTKYREKFEGRVTITADTSTNTAYMELSSLRSEDTAVYYCVRSGREFDYWGQGTLVTVSSASTKGPSVFPLAPSSKSTSGGTAALGCLVKDYFPEPVTVSWNSGALTSGVHTFPAVLQSSGLYSLSSVVTVPSSSLGTQTYICNVNHKPSNTKVDKKVEPKSCDKTHTCPPCPAPELLGGPDVFLFPPKPKDTLMISRTPEVTCVVVDVSHEDPEVKFNWYVDGVEVHNAKTKPREEQYNSTYRVVSVLTVLHQDWLNGKEYKCKVSNKALPAPIEVTISKAKGQPREPQVYTLPPSRCELTKNQVSLSCAVKGFYPSDIAVEWESNGQPENNYKTTPPVLDSDGSFFLVSKLTVDKSRWQQGNVFSCSVMHEALHNHYTQKSLSLSP light: DIQMTQSPSSLSASVGDRVTITCRASQDIHKYIAWYQQKPGQAPRLLIQYTSTLQPGVPSRFSGSGSGTDYTFTISSLQPEDIATYYCLQYEQLRTFGGGTKVEIKRTVAAPSVFIFPPSDEQLKSGTASVVCLLNNFYPREAKVQWKVDNALQSGNSQESVTEQDSKDSTYSLSSTLTLSKADYEKHKVYACEVTHQGLSSPVTKSFNRGEC
1.2	0.7	2.5	20.7	6.5	H240-Kn204/H240-Hl211/L73-k0 (antibody, human IgG1, kappa, L234Y/K290Y/Y296W in one H chain, S239D/A330M/K334V in the other) heavy 1: QDQLVQSGAEVKKPGASVKVSCKASGFNIKDTYIQWVRQAPGQGLEWMGRIDPLRKQTKYREKFEGRVTITADTSTNTAYMELSSLRSEDTAVYYCVRSGREFDYWGQGTLVTVSSASTKGPSVFPLAPSSKSTSGGTAALGCLVKDYFPEPVTVSWNSGALTSGVHTFPAVLQSSGLYSLSSVVTVPSSSLGTQTYICNVNHKPSNTKVDKKVEPKSCDKTHTCPPCPAPEYLGGPSVFLFPPKPKDTLMISRTPEVTCVVVDVSHEDPEVKFNWYVDGVEVHNAKTYPREEQWNSTYRVVSVLTVLHQDWLNGKEYKCKVSNKALPAPIEKTISKAKGQPREPQVCTLPPSRDELTKNQVSLWCLVKGFYPSDIAVEWESNGQPENNYKTTPPVLDSDGSFFLYSKLTVDKSRWQQGNVFSCSVMHEALHNHYTQKSLSLSP heavy 2: QDQLVQSGAEVKKPGASVKVSCKASGFNIKDTYIQWVRQAPGQGLEWMGRIDPLRKQTKYREKFEGRVTITADTSTNTAYMELSSLRSEDTAVYYCVRSGREFDYWGQGTLVTVSSASTKGPSVFPLAPSSKSTSGGTAALGCLVKDYFPEPVTVSWNSGALTSGVHTFPAVLQSSGLYSLSSVVTVPSSSLGTQTYICNVNHKPSNTKVDKKVEPKSCDKTHTCPPCPAPELLGGPDVFLFPPKPKDTLMISRTPEVTCVVVDVSHEDPEVKFNWYVDGVEVHNAKTKPREEQYNSTYRVVSVLTVLHQDWLNGKEYKCKVSNKALPMPIEVTISKAKGQPREPQVYTLPPSRCELTKNQVSLSCAVKGFYPSDIAVEWESNGQPENNYKTTPPVLDSDGSFFLVSKLTVDKSRWQQGNVFSCSVMHEALHNHYTQKSLSLSP light: DIQMTQSPSSLSASVGDRVTITCRASQDIHKYIAWYQQKPGQAPRLLIQYTSTLQPGVPSRFSGSGSGTDYTFTISSLQPEDIATYYCLQYEQLRTFGGGTKVEIKRTVAAPSVFIFPPSDEQLKSGTASVVCLLNNFYPREAKVQWKVDNALQSGNSQESVTEQDSKDSTYSLSSTLTLSKADYEKHKVYACEVTHQGLSSPVTKSFNRGEC
